Laboratory results published in patent CN116143917A (DONGGUAN PENGZHI BIOTECHNOLOGY CO LTD, dated 2023).

T1: D-二聚体抗原(购自菲鹏)
T1 chain 1: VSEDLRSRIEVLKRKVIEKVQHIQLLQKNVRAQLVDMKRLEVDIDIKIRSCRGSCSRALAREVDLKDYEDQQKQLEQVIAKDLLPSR
T1 chain 2: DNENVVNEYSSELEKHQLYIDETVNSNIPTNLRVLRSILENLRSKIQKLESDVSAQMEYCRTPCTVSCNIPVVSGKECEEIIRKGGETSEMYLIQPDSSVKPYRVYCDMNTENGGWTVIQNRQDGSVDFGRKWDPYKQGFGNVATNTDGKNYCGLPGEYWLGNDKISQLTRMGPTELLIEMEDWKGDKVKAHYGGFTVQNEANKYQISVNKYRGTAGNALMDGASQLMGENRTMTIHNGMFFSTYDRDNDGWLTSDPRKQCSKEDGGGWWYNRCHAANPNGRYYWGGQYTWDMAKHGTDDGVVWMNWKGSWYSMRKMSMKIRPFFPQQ
T1 chain 3: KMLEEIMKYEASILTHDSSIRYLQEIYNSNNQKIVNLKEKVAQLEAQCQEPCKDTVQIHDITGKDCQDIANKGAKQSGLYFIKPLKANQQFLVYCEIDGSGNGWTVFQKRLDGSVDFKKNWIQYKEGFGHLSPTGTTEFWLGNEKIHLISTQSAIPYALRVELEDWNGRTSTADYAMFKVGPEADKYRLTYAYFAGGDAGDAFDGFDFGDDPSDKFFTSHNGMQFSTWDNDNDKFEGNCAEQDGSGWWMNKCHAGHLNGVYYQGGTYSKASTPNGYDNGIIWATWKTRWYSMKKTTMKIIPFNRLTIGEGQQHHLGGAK

B1: 14D2RMb-1 (antibody, mouse IgG2a, kappa)
heavy: QVQLQQSGPELVRPGVSVKISCKGSGYRFTDYSIHWLKQSHAKSLEWIGVISTYSGNPDYNQKFKGKATMTVDQSSSTAYMELARLTSDDSAIYYCSRMNDYYGDYFFDHWGQGTTLIVSSAKTTAPSVYPLAPVCGDTTGSSVTLGCLVKGYFPEPVTLTWNSGSLSSGVHTFPAVLQSDLYTLSSSVTVTSSTWPSQSITCNVAHPASSTKVDKKIEPRGPTIKPCPPCKCPAPNLLGGPSVFIFPPKIKDVLMISLSPIVTCVVVDVSEDDPDVQISWFVNNVEVHTAQTQTHREDYNSTLRVVSALPIQHQDWMSGKEFKCKVNNKDLPAPIERTISKPKGSVRAPQVYVLPPPEEEMTKKQVTLTCMVTDFMPEDIYVEWTNNGKTELNYKNTEPVLDSDGSYFMYSKLRVEKKNWVERNSYSCSVVHEGLHNHHTTKSFSRTPGK
light: DVVMTQTPLSLFVDLGDPASISCRSSQSLVHTNGNTYLHWYLQKPGQSPRLLIYKVSNRFSGVPDRFSGSGSGTDFTFKISSVEAEDLGLYFCSQSRHVPLTFGAGTKLELKRADAAPTVSIFPPSSEQLTSGGASVVCFLNNFYPKDINVKWKIDGSERQNGVLNSWTDQDSKDSTYSMSSTLTLTKDEYERHNSYTCEATHKTSTSPIVKSFNRNEC
notes: Recombinant monoclonal antibody made in CHO cells from hybridoma genes; also called 14D2RMb-1抗体

Molecular target: T1, D-二聚体抗原(购自菲鹏)
Assay: BLI, AMC sensor, antibody immobilised, D-dimer antigen in serial dilution

Row | Molecule | Kd | koff | kon
1 | 对照抗体 (antibody) | 21.4 nM | 0.000132 s⁻¹ | 6170 M⁻¹ s⁻¹
2 | B1 | 9.9 nM | 0.00545 s⁻¹ | 550000 M⁻¹ s⁻¹
